These results are taken from PMC2444022.

The subject of data set [1] is LysRS(K130A) (Escherichia coli). The data set can be described thus: EMSA. As to conditions: gel-retardation buffer, pH and temperature not in material. A general note: Mobility shift assays separate free from complexed probe on a gel.
Data set [2] concerns LysRS(T133A) (Escherichia coli). In words: EMSA. As to conditions: gel-retardation buffer, pH and temperature not in material.
Data set [3] deals with LysRS wild type (lysyl-tRNA synthetase) (Escherichia coli). The data set can be described thus: EMSA. As to conditions: reference; gel-retardation buffer, pH and temperature not in material.
Data set [4] has as its system LysN (anticodon-binding domain of LysRS) (Escherichia coli). As to conditions: gel-retardation buffer, pH and temperature not in material; cited from earlier work.

In the case of tRNALys, the binding signal (fraction of WT bound) amounted to 0.35 in data set [1], 1.17 in data set [2] and 1 in data set [3].

Usually Kd stands for the free concentration of one partner at which half of the binding sites on the other are occupied at equilibrium, for simple one-to-one binding. For the substance tRNALys (unlabeled competitor), the Kd in data set [4] is 100 µM.
